Assay results: patent US20200369776A1 (ADAGENE, published 2020)

Assays:
Experiment in all cases: FACS, HEK293F
[1] = target: T1, human CD137 mutant Hu_FSS53AAA on HEK293F cells (human, UniProt Q07011 18-255)
T1 chain: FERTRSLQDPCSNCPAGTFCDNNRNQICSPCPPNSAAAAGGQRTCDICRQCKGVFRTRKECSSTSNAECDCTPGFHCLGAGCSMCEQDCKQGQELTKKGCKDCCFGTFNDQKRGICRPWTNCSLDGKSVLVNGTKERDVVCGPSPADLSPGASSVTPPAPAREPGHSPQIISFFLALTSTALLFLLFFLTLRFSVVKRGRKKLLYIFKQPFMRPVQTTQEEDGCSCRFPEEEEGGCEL
Description: (§1) Transfected cells were washed in pre-chilled staining buffer (PBS supplemented with 2% FBS), then incubated with 100 nM test antibodies for 1 hr on ice. […] Samples were washed once with staining buffer prior to analysis by flow cytometry.
(§2) To determine the binding regions of the tested antibodies at amino acid residue level, a series of mutations (Table 5) were made at the extracellular domain of human CD137. These CD137 mutation plasmids were used to transfect HEK293F cells.

[2] = target: human CD137 mutant Hu_FN125AA on HEK293F cells (human, UniProt Q07011 18-255)
Description: as §1, §2

[3] = target: human CD137 mutant Hu_PW135AA on HEK293F cells (human, UniProt Q07011 18-255)
Description: as §1, §2

[4] = target: human CD137 mutant Hu_GT150AA on HEK293F cells (human, UniProt Q07011 18-255)
Description: as §1, §2

B1: reference antibody AC1121 (antibody, V domains shown)
VH: QVQLQQWGAGLLKPSETLSLTCAVYGGSFSGYYWSWIRQSPEKGLEWIGEINHGGYVTYNPSLESRVTISVDTSKNQFSLKLSSVTAADTAVYYCARDYGPGNYDWYFDLWGRGTLVTVSS
VL: EIVLTQSPATLSLSPGERATLSCRASQSVSSYLAWYQQKPGQAPRLLIYDASNRATGIPARFSGSGSGTDFTLTISSLEPEDFAVYYCQQRSNWPPALTFGGGTKVEIK
binding result [1]: binds
binding result [2]: binds
binding result [3]: binds
binding result [4]: binds

B2: AG10058 (antibody, human IgG4 S228P, kappa, V domains shown)
VH: EVQLVESGGGLVQPGGSLRLSCAASGFSLSTSGVGVGWIRQAPGKGLEWLALIDWDDDKYYSPSLKSRLTISRDNSKNTLYLQLNSLRAEDTAVYYCARGGSDTVLGDWFAYWGQGTLVTVSS
VL: DIQLTQSPSSLSASVGDRVTITCRASQSVSPYLAWYQQKPGKAPKLLIYDASSLESGVPSRFSGSGSGTDFTLTISSLQPEDFATYYCQQGYSLWTFGQGTKVEIKR
notes: IgG4 (S241P)
binding result [3]: binds
binding result [4]: binds

B3: AG10059 (antibody, human IgG4 S228P, kappa, V domains shown)
VH: EVQLVESGGGLVQPGGSLRLSCAASGYSITSGHYWAWIRQAPGKGLEWVSSISGYGSTTYYADSVKGRFTISRDNSKNTLYLQLNSLRAEDTAVYYCARGGSDAVLGDWFAYWGQGTLVTVSS
VL: DIQLTQSPSSLSASVGDRVTITCRASQGIGSFLAWYQQKPGKAPKLLIYDASNLETGVPSRFSGSGSGTDFTLTISSLQPEDFATYYCQQGYYLWTFGQGTKVEIKR
notes: IgG4 (S241P)
binding result [3]: binds
binding result [4]: binds
